Measurements published in PMC8881453, “Cryo-EM structure of translesion DNA synthesis polymerase ζ with a base pair mismatch” (Nature Communications, 2022).

B1: Rev7, accessory subunit of DNA polymerase ζ (Polζ) (natural protein, Saccharomyces cerevisiae, UniProt P38927 1-245, looked up)
chain: MNRWVEKWLRVYLKCYINLILFYRNVYPPQSFDYTTYQSFNLPQFVPINRHPALIDYIEELILDVLSKLTHVYRFSICIINKKNDLCIEKYVLDFSELQHVDKDDQIITETEVFDEFRSSLNSLIMHLEKLPKVNDDTITFEAVINAIELELGHKLDRNRRVDSLEEKAEIERDSNWVKCQEDENLPDNNGFQPPKIKLTSLVGSDVGPLIIHQFSEKLISGDDKILNGVYSQYEEGESIFGSLF
notes: Rev7, Saccharomyces cerevisiae, accessory subunit of Polζ, full-length (residues 1-245); Two copies (Rev7A and Rev7B) stand in the pentameric holoenzyme; also called Rev7B; source: expressed in yeast from plasmids pBJ1462 and pBJ1524, purified as the Polζ holoenzyme
B2: Pol32, accessory subunit of DNA polymerase ζ (Polζ) (natural protein, Saccharomyces cerevisiae, UniProt P47110 1-350, looked up)
chain: MDQKASYFINEKLFTEVKPVLFTDLIHHLKIGPSMAKKLMFDYYKQTTNAKYNCVVICCYKDQTIKIIHDLSNIPQQDSIIDCFIYAFNPMDSFIPYYDIIDQKDCLTIKNSYELKVSESSKIIERTKTLEEKSKPLVRPTARSKTTPEETTGRKSKSKDMGLRSTALLAKMKKDRDDKETSRQNELRKRKEENLQKINKQNPEREAQMKELNNLFVEDDLDTEEVNGGSKPNSPKETDSNDKDKNNDDLEDLLETTAEDSLMDVPKIQQTKPSETEHSKEPKSEEEPSSFIDEDGYIVTKRPATSTPPRKPSPVVKRALSSSKKQETPSSNKRLKKQGTLESFFKRKAK
notes: Pol32, Saccharomyces cerevisiae, accessory subunit of Polζ, full-length (residues 1-350); The full-length protein was in the sample; also called Pol32N; source: expressed in yeast from plasmids pBJ1462 and pBJ1524, purified as the Polζ holoenzyme
B3: A:C mismatched palindromic template-primer (dsDNA)
DNA 1: TAATGATAGGGGAGGGAATCCCTCCCCTAC
DNA 2: B3 DNA 1
modifications: 3'-dideoxy C terminus
B4: Pol31, accessory subunit of DNA polymerase ζ (Polζ) (natural protein, Saccharomyces cerevisiae, UniProt P46957 1-487, looked up)
chain: MDALLTKFNEDRSLQDENLSQPRTRVRIVDDNLYNKSNPFQLCYKKRDYGSQYYHIYQYRLKTFRERVLKECDKRWDAGFTLNGQLVLKKDKVLDIQGNQPCWCVGSIYCEMKYKPNVLDEVINDTYGAPDLTKSYTDKEGGSDEIMLEDESGRVLLVGDFIRSTPFITGVVVGILGMEAEAGTFQVLDICYPTPLPQNPFPAPIATCPTRGKIALVSGLNLNNTSPDRLLRLEILREFLMGRINNKIDDISLIGRLLICGNSVDFDIKSVNKDELMISLTEFSKFLHNILPSISVDIMPGTNDPSDKSLPQQPFHKSLFDKSLESYFNGSNKEILNLVTNPYEFSYNGVDVLAVSGKNINDICKYVIPSNDNGESENKVEEGESNDFKDDIEHRLDLMECTMKWQNIAPTAPDTLWCYPYTDKDPFVLDKWPHVYIVANQPYFGTRVVEIGGKNIKIISVPEFSSTGMIILLDLETLEAETVKIDI
notes: Pol31, Saccharomyces cerevisiae, accessory subunit of Polζ, full-length (residues 1-487); source: expressed in yeast from plasmids pBJ1462 and pBJ1524, purified as the Polζ holoenzyme

Assays:
[1] = target: T1, Polζ holoenzyme (Rev3-Rev7-Pol31-Pol32) (Saccharomyces cerevisiae, UniProt P14284); test: cryo-EM structure, […] Å; type: binding; settings: ternary complex with dideoxy-terminated A:C mismatched primer-template DNA, templating G; 1 mM dCTP; CaCl2 (Ca2+ metal B); Rev3 active site, fingers open
T1 construct: full-length subunits, holoenzyme expressed in yeast from plasmids pBJ1462 and pBJ1524; pentameric complex with two Rev7 (Rev7A, Rev7B); with DNA polymerase zeta processivity subunit; DNA polymerase delta small subunit; DNA polymerase delta subunit 3
T1 sequence (P14284 whole entry, one chain of several): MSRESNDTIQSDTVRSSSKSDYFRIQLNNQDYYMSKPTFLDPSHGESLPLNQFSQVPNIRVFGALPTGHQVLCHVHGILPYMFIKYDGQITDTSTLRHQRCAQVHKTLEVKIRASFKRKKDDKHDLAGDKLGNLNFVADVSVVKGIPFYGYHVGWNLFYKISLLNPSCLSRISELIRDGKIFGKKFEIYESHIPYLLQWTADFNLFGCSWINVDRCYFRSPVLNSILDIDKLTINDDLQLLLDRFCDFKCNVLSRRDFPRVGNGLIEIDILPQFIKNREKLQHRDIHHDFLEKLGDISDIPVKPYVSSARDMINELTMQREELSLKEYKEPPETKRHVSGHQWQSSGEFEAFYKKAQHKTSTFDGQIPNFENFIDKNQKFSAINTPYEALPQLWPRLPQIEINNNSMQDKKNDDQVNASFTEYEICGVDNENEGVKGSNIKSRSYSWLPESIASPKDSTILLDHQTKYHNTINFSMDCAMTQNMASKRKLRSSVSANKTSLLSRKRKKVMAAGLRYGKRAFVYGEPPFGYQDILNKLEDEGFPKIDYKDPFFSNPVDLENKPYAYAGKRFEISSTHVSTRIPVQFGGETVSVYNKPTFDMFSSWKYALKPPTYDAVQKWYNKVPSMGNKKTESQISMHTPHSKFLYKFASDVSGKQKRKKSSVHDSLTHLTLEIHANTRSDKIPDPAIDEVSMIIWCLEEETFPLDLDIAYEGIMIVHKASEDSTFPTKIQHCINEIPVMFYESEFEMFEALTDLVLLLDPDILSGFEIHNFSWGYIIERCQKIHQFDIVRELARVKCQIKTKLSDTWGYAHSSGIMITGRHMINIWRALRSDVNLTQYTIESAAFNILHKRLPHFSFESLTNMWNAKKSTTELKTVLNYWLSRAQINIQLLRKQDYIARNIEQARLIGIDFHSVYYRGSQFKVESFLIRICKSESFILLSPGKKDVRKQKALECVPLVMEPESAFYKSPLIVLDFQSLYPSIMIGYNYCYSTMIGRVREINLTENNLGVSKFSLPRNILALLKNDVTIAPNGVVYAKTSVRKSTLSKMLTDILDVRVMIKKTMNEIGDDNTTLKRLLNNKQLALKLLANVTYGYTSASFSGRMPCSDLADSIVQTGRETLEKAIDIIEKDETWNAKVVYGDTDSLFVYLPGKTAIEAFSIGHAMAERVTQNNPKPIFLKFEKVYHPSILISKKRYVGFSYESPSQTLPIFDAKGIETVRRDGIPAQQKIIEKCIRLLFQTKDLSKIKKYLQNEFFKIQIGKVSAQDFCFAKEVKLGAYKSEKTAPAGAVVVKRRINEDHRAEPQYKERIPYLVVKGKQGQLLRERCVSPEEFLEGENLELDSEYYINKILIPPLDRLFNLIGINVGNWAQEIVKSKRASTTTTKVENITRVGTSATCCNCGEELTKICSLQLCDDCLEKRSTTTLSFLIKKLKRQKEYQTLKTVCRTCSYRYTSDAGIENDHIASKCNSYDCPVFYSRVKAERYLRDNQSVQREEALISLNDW

[2] = target: T2, Rev3, catalytic subunit of DNA polymerase ζ (Polζ) (Saccharomyces cerevisiae, UniProt P14284 1-1504); test: cryo-EM structure; Polζ holoenzyme incubated in a CaCl2 supplemented buffer with palindromic DNA (1.5 molar excess) with an A:C mismatch at the primer terminus, 1 mM dCTP; nominal resolution 3.05 Å; settings: both partners purified
T2 construct: Rev3, Saccharomyces cerevisiae, catalytic subunit of Polζ, full-length (residues 1-1,504); also called catalytic Rev3; source: expressed in yeast from plasmids pBJ1462 and pBJ1524, purified as the Polζ holoenzyme
T2 sequence (P14284 whole entry, the tested form may be a part): as the sequence (P14284 whole entry, one chain of several) above

[3] = target: B2; test: as above; settings: both partners purified
[4] = target: B4; test: as above; settings: both partners purified
Rev3 (Polζ catalytic …) = target: Rev3 (Polζ catalytic subunit);Rev7;Pol31;Pol32 (Saccharomyces cerevisiae;Saccharomyces …, UniProt P14284;P38927;P46957;P47110 1-1504;1-245;1-487;1-350, |||); test: cryo-EM structure (3.05 Å); 1 mM dCTP, CaCl2; metal ion B; CaCl2-supplemented buffer, DNA in 1.5 molar excess, 1 mM dCTP; salt, pH and temperature not given; settings: protein: recombinant;recombinant;recombinant;recombinant; tags: ;;;; copies: 1;2;1;1; self-annealed palindrome, 2 copies of one strand; 5' overhang 5 nt (TAATG, templating G); A6:C30 mismatch at primer terminus; central A:A
Sequence of Rev3 (Polζ catalytic subunit);Rev7;Pol31;Pol32 (P14284 whole entry, one chain of several): as above

Molecule: Nc1ccn([C@H]2C[C@H](O)[C@@H](COP(=O)(O)OP(=O)(O)OP(=O)(O)O)O2)c(=O)n1 [dCTP]
cryo-EM structure, 3.05 Å [1]: Rev3 is observed with the incoming nucleotide dCTP (position P0) opposite the templating base G

Molecule: B1
binding result [2]: binds
binding result [3]: binds

Molecule: B2
binding result [4]: binds

Molecule: B3
binding result (Rev3 (Polζ catalytic …)): binds

Molecule: B4
binding result [2]: binds
